Assay results reported in US20140245492.

Molecular target: ubiquitin

B1: MBP-AtAIRP2 (fusion of maltose-binding protein and Arabidopsis thaliana ABA Insensitive Ring Protein 2) (protein)
chain: MRKSFKDSLKALEADIQFANTLASEYPEEYDGGYVQMRLSYSPAAHLFLFLLQWTDCHFAGALGLLRILIYKAYVDGKTTMSLHERKTSIREFYDVLFPSLLQLHGGITDVEERKQKEICDKRYRKKDRTDKGKMSEIDLEREEECGICLEIRNKVVLPTCNHSMCINCYRNWRARSQSCPFCRGSLKRVNSGDLWIYTCSAEIADLPAIYKENLKRLLIYIDKLPLVTSDPNLVPYAPLPR
Q: Which “Self-Ubiquitination (in vitro, with UBA1, UBC8 and ubiquitin, 30° C. for 1 hour; Western blot using MBP- and ubiquitin-specific antibodies)” value does the source give for B1 here?
A: Its value is “the molecular weight of the AtAIRP2 protein was increased through Western blot using anti-MBP antibody, and the increase was induced due to ubiquitin”.
